Test results: paper doi:10.1101/2020.03.27.012328 (bioRxiv, 2020)

Target: CID1R^ML (maximum likelihood reconstructed ancestral CID from the time of the first whole genome duplication)
Assay: ITC

Kd: 2900 ± 100 nM
B1: NCBDD/P of the ITC example in Figure S1e (label lost) (domain or fragment)
chain: TPPQALQQLLQTLKSPSSPQQQQQVLQILKSNPQLMAAFIKQRSQHQQ
